# Measured values published in the nanobody polyreactivity screen of Harvey et al. (2022).
# Assay: yeast display, Sf9 membrane polyspecificity reagent, FACS + sequencing; frameworks hold sequencing errors
# Procedure, shortened: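 After 36–48 hours of galactose induction, yeast (Saccharomyces cerevisiae BJ5465) displaying a synthetic nanobody library were stained at 4 °C for 1 hour with 10% biotinylated, detergent-solubilized Sf9 membrane reagent. Streptavidin microbeads enriched the stained cells before FACS sorting into low and high (top ~1%) gates on anti-HA and streptavidin fluorescence. Each clone's polyreactivity label reflects its gate of origin.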
row,Sequence,polyreactivity (PSR sort gate)
1,QVQLVESGGGLVQAGGSLRLSCAASGSTFFRYAMGWNRQAPGKERELVATITGGGRTNYADSVKGRFTISRDNAKNTVYLQMNTLKPEDTAVYYCAAYGYVWALRLRYVTYYYWGQGTQVTVSS,high polyreactivity
2,QVQLVESGGGLVQAGGSLRLSCAASGSTFGGYAMGWYRLAPGKERELVAAISSSGTSTYYADSVKGRFTISRDNAKNTVYLQMNSLKPEDTAVYYCATDFSFFSRFDYWGQGTQVTVSS,low polyreactivity
3,QVQLVESGGGLVQAGGSLRLSCAASGFIFDTYVRGWYRQAPGKERELVAAISRTGGRTYYADSVKGRFTISRDNAKNTLYLQMNSLKPEDTAVYYCAARQSTQSGSYRRYNYWGQGTQVTVSS,high polyreactivity
4,QVQLVESGGGLFQEGGSLRLSCAASGSIFSYYAMGWYRQAPGKERELVAAISTYGGRTYYADSVKGRFTISRDNAKNTVYLQMNSLKPEDTAVYYCAGPVRWKNYDYWGQGTPVTVSS,high polyreactivity
5,QVQLVESGGGLVQAGGSLRLSCAASGRTFTVYAMGWYRQAPGKERELVAAIIYSGGRTYYADSVKGRFTISRDNAKNTVYLQMNSLKPEDTAVYYCAAYVYQSCPRFSRYGGYDYWGQGTQVTVSS,low polyreactivity
6,QVQLVESGGGLVQAGGSLRLSCAASGRISFRIRWDGIDRRLGKKGSWLPLLTNTGSTNYADSVKGRFTISRDNAKNTVYLQMNSLKPEDTAVYYCNADQTGGSSYPAYFEYDYWGQGTQVTVSS,low polyreactivity
7,QEQLVESGGGLVQAGGSLRLSGAASGGIFGRYAMGGYRQAPGKEMELVAAISKRGGSTYYADSVKGRFTISRDNAKNTVYLQMNSLKPEETAFYYCNAAQSVELGYDYWGQGTQVTVSS,high polyreactivity
8,QVQLVESGGGLVQAGGSLRLSCAASGITFLPYARGWYRQAPGKERELVAAITRGGGSTYADSVKGRFTISRDNAKNTVYLQMNSLKPEDTAVYYCAKRYGRVSWYEDYDYWGQGTQVTVSS,low polyreactivity
9,QVQLVESGGGLVQAGRSLRLSCASSGRIFSSYAKGWYRQAPGKERELVAAITSGGSTDYADSVKGRFTISRDNAKNTVYLQIYRLNPEDTAVYYCAKAFLPPWTYSPYYLFYYWGQGTQVTVSS,low polyreactivity
10,QVQLVESGGGLVQAGGSLRLSCAASGLIFPWNAMGWYRQAPGKERELVAAINGRDGSTYYADSVKGRFTISRDNAKNTVYLQMNSLKPEDTAVYYCAKGPSGVRTYREYDSWGQGTQVTVSS,low polyreactivity
11,QVQLVESGGGLVQAGGSLRLSCAASGSIFPNNDMGWYRQAPGKERELVAAITTRGTSTYYADSVKGRFTISRDNAKNTVYLQMNSLKPEDTAVYYCAVGRRGDSAGGVAYYYWGQGTQVTVSS,low polyreactivity
12,QVQLVESGGGLVQAVGSLRLSCAASGSTFGKNAMGWYRQAPGKERELVAAISTSGTRSFYADSVKGRFTISRDTAKNTVYLQMNSLKPEDTAVYYCNAGRSSRAYYYWGQGTQVTVSS,high polyreactivity
13,QVQLVESGGGLVQAGGSLRLSCAASGYTFDDYEMGWYRQAPGKERELVAAISRGGSTYYADSVKGRFTISRDNEKNTVYFQMNSLKPEDTAVYYCGAVYRVRKITYDYWGQGTQVTVSS,high polyreactivity
14,QVQLVESGGGLVQAGGSLRLSCAASGRTFFDYSMGWYRQAPGKERELVAAITGGDGSTYYADSVKGRFTISRDNAKNTVYIQMNSLKTEDTAVYYCAAENTRTYWYAAMDYWGQGTQVTVSS,low polyreactivity
15,QVQLVESGGGLVQAGGSLRLSCAASGRIFYIYAMGWYRQAPGKERELVAAISSGGTTNYADSVKGRFTISRDNAKNTVYLQMNSLKPEDTSVDYCNAVRGEKMGYWGQGTQVTVSS,high polyreactivity
16,QVQLVESGGGLVQEGGSLRLSCAASGRISYIYAMGWYRQAQGKERELVAAITRGGSTNYADSVKGCFTISRDNAKNTVYLQMNSLKPEDTAVYYCAARRRRSGGYEYDYWGQGTQVTVSS,high polyreactivity
17,QVQLVESGGGLVQAGGSLRLSCAASGSTFVVNAMGWYRQAPGKERELVAAIDGSDGSTYYADSVKGRFTISRDNAKNTVYLQMNSLKPEDTAVYYCAAEVLGRPDVENDYWGQGTQVTVSS,low polyreactivity
18,QVQLVESGGGLVQAGGSLLLSCAASGFILYSYAMGWYRQAPGTEREFVSVISRGGGRTYYADSVKGRFTISRDNAKNTVYLQMNCLKPDDTAVYYCAATPSNVYAYEYWGQGTQVTVSS,low polyreactivity
19,QVQIVESGGGKVQEGGSLRLSCAASGITFTWYDMGWYRQAPGKERELVAAITTDGGSTYYADSVKGRFTISRDNAKNTVYLQINSLKPEDTAVYYCAAAGYVPFPVVYEYWGQGTQVTVSS,high polyreactivity
20,QVQLVESGGGIVQAGGSLRLSCASSGSIFYWYAMGWYRQAPGKERELVAAISRSGGSTYYADSVKGRFTISRDNAKNTVYLQMNSLKPEDTAVYYCATELSYRHGYWGQGTQVTVSS,high polyreactivity
21,QVQLVESGGGLVQAGGSLRLSSAASGSIFSYNVMGWYRQAPGKERELVAAISWNDGSTYYADSVKGRFTISRDNAKNTVYLQMNSLKPEDTAVYYCAAEYGRRWHNELDYWGQGTQVTVSS,low polyreactivity
22,QVQLVESGGGLVQAGGSLRLRCAASGFTFYRYAMGWYRQAPGKERELVAAISQRGGTTYYADSVKGRFTISRDNSKNTVYLQMNSLKPDDPAVYYCAARGRAYQNAYEYDYWGQGTQVTVSS,high polyreactivity

row,Sequence,polyreactivity (PSR sort gate)
1,QVQLVESRGGLVQAGGSLRLSCAASGRTFDGYVMGWYRQAPGKERELVAAISWGGSYTYYADSVKGRFTISRDNAKNTVYLQMNSLKPEDTAVYYCAKDTVPNVRDYWGQGTQVTVSS,low polyreactivity
2,QVQLVESGGGLVQAGCSLRLSCAASGSTFYYNAMGWYRQAPGKERELVAAITFTGGSTYADSVKGRFTISRDNAKNTVYLQLNSLKPEDTAVYYCAATIEGHDYLGTGYDYWGHGTQVTVSS,low polyreactivity
3,QVQLVESGGGLVQAGGSLRLSCAASGIIFWYNAMGWYRQAPGKERELVAAISWSGGRTYYADSVKGRFTISRDNAKNTVYLQMNSLKPEDTAVYYCAAKVPRSSRSYGYWGQGTQVTVSS,high polyreactivity
4,QVQLVESGGGLVQAGGSLRLSCAASGSIFENYAMGCYRQAPGKERELVAAISSSGDSTYYADSVKGRFTISRDNAKNTVYLQMNSLKPEDTAVYYCAKGYRRVYGPFYYWGQVTQVTVSS,low polyreactivity
5,QVQLVETGGGLVQAGGILLLSCAASRIIFPWYTMGWYRQAPGKERELVAAINYSSGDTYADSVKGRFTISRDNAKNTVYLQMNSLKPEDTAVYYCDAEDPEYATYWYKYGYWGLGTQVTVSS,low polyreactivity
6,QVQLVESGGGLVQAGGSLRLSCAASGGIFAPYVMGWYRQAPGKERELVAGITWSGGSTYYADSVKGRFTISRDNAKITVYLQMNSLKPEDTAVYYCAAEWYYSVIWLYEYWGQVTQVTVSS,high polyreactivity
7,QVQLVESGGGLVQAGRSLRLSCAASGFTFRGYAMGWYRQAPGKERELVAAISVRGDSTYYADSVKGRFTISRDNAKNTVYLQMNSLKPEDTAVYYCNAALLGKQYYSNPNYDYWGQGTQVTVSS,high polyreactivity
8,QVQLVESGGGLVQAGGSLRLSCAASGRTLASNAMGWYRQAPGKERELVAAINRGGSTYYADSVKGRFTISRDNAKNTVYLQMNSLKPEDTAVYYCRFYSYWSWLGREYDYWGQGTQVTVSS,low polyreactivity
9,QVQLVESGGGLVQAGGSLRLSCAASGSTFSYNAMGWYRQAPGKERELVAAISKSGGSTSYADSVKGRFTISRDNAKNTVYLQMNSQKPEDTAVYYCNARYSRKYGYWGQGTQVTVSS,high polyreactivity
10,QVQLVESGGGLVQAGGSLRLSCAASGRTFGSNAMGWYRQAPGKERELVAVITTSGGSTYYADSVKGRFTISRDNAKNTVYLQMNSLKPEDTAVYYCNKVGWYHNYYYWGQGTQVTVSS,high polyreactivity
11,QVQLVESGGGLVQAGGSLRLSCAASGGIFYGYALGWYRQAPGKERELVASITSDGSTYADSVKGRFTISRDNAKNTVYLQMNSLKPEDTAVYYCNKEILVIVTYDYWGQGTQVTVSS,low polyreactivity
12,QVLLVESGGGLLQAGGSLRLSCAASGFTFLGYVMGWYRQAPGKEREFVADITESGGRTYYADSVKGRFTISRDNAKNTVYLQMNSLKPEDTAVYYCSGEVIFEQLNRMDYWGQGTQVTVSS,low polyreactivity
13,QVQLVESGGGLVQAGGSLRLSCGASGSIFVNKAMGWYRPAPGKERELVAAISSRSSRTFYADSVKGRFTISRDHAKNTVYLKMNILKPEDTEVYSCAVKKRAPDGDYWGQGTQVTVSS,high polyreactivity
14,QVQLHESGGGLVQAGGGLRLSCAASGSISSTGFMGWYRQAPGKEREPVAAIAPGTTTYYADSVKGRFTISRDNAINTVYLQMNSLRPEDTAVYYCAVFTDNRVAFLYWGQGTQVTVSS,low polyreactivity
15,QVQLVESGGGLVQAGGSLRLSCAASGFIFDRNTMGWYRQAPGKERELVAAISRSGGSTYYADSVKGRFTISRDNAKNTVYLLMNSLKPEDSAVYYCAALYYYRNRSYDYWGQGTQVTVSS,high polyreactivity
16,QVQLVESGGGLVQAGGSLRLSCAASGLTFGLYAMGWYRQAPGKERELVAVITAGGRTYYADSVKGRFTISRDNAKNTVYLQMNSLKPEDTAVYYCATVNYGSGRGYRRVYTAYYYWGQGTQVTVSS,low polyreactivity
17,QVQLQERGVGLVQAGGTISLGYDMVWYRQAPGKEREFVAGIDTCAITYYADSVKGRFTNSRDNAKNTVYLQMNILNPEDTAVYYCAANQTHTYAHSYWGQGTQVTVSS,high polyreactivity
18,QVQLVESGGGLVQAGGSLRLSCAASGSTFSSNAMGWYRQAPGKERELVAAISSGGSTNYADSVKGRFTISRDNAKNTVYLQMNSLKPEDTAVYYCAADRSPEYYWGQGTQVTVSS,low polyreactivity
19,QVQLVESGGGLVQAGGSLRLSCAASGYTFGLYTMGWYRQAPGKEREFVATIDWSEGGTHYADSVKGRFTISRDIAKISVYLQMNSLKPEYTAVYYCNADWYAYPYGYWGQGTQVTVSS,low polyreactivity
20,QVQLVESGGGLVQAGGSLRLSCAASGRISKRNVMGWYRQAPGKERELVAGITSTGSTSYADSVKGRFTISRDNAKNTVYLQMNSLKPEDTAVYYCAARGQATYNWGQGTQVTVSS,high polyreactivity
21,QVQLVESGGGLVQAGGSLRLSSAASGRTFGFYAMGCYRQAHGKERELVATISSSGGSTYYADSVKGRFTISRDNAKNTVYLQMNRLTPEDTAVYYCAKVVSVWRSHYIGDYWGQGSQVTVSS,low polyreactivity
